Results published in paper PMC9482650, “Quantitative fragmentomics allow affinity mapping of interactomes” (Nature Communications, 2022).

T1: SNTA1, Q13424
T1 sequence (Q13424 82-180, limits assumed, looked up): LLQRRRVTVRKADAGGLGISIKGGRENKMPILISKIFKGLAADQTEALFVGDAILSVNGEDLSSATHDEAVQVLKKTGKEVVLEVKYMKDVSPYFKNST

T2: SIPA1L2, Q9P2F8
T2 sequence (Q9P2F8 945-1036, limits assumed, looked up): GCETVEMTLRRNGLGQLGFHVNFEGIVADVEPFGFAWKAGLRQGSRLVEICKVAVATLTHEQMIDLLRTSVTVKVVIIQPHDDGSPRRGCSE

T3: LNX2_2, Q8N448
T3 sequence (Q8N448 334-432, limits assumed, looked up): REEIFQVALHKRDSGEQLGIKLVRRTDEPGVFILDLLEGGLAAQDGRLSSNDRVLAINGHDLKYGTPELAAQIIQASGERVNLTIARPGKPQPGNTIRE

T4: MPDZ_12, O75970
T4 sequence (O75970 1857-1958, limits assumed, looked up): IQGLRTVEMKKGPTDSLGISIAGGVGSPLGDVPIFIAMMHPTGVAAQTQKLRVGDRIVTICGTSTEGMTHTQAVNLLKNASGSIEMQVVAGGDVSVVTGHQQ

T5: GRIP1_4, Q9Y3R0
T5 sequence (Q9Y3R0 467-571, limits assumed, looked up): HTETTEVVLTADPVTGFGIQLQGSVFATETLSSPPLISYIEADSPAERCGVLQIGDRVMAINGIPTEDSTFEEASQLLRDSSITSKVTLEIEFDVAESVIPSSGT

T6: ARHGEF11, O15085
T6 sequence (O15085 42-136, limits assumed, looked up): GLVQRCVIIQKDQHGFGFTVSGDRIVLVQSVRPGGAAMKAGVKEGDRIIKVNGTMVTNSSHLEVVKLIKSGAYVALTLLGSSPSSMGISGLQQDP

T7: APBA2_1, Q99767
T7 sequence (Q99767 563-664, limits assumed, looked up): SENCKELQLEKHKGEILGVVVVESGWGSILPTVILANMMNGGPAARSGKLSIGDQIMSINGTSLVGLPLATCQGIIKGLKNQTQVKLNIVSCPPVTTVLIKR

T8: GRIP1_3, Q9Y3R0
T8 sequence (Q9Y3R0 247-346, limits assumed, looked up): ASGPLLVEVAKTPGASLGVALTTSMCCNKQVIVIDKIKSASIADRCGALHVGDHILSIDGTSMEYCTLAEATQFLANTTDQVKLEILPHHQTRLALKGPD

T9: PDZD7_3, Q9H5P4
T9 sequence (Q9H5P4 857-944, limits assumed, looked up): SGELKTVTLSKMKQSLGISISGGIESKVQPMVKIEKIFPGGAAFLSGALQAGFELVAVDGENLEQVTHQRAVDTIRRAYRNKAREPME

T10: PTPN13_1, Q12923
T10 sequence (Q12923 1088-1188, limits assumed, looked up): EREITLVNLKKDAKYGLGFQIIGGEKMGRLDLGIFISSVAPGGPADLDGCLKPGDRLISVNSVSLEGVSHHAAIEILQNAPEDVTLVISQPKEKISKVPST

T11: GRIP1_2, Q9Y3R0
T11 sequence (Q9Y3R0 145-248, limits assumed, looked up): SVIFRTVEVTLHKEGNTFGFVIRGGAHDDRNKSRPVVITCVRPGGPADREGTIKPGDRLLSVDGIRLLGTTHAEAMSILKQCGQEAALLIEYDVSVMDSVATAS


Legend:
Assay in all cases: holdup assay
Parameters in all cases: key: below the threshold = too weak to quantify, mostly under pKd 3.1 to 4
Details in all cases: plain residues with an end cap or a label only (N-terminal biotin on a linker: ado-ado)
SNTA1, Q13424 = molecular target: T1, SNTA1, Q13424
LNX1_2, Q8TBB1 = molecular target: LNX1_2, Q8TBB1
DLG2_3, Q15700 = molecular target: DLG2_3, Q15700
SIPA1L2, Q9P2F8 = molecular target: T2, SIPA1L2, Q9P2F8
LNX2_2, Q8N448 = molecular target: T3, LNX2_2, Q8N448
MPDZ_12, O75970 = molecular target: T4, MPDZ_12, O75970
GIPC2, Q8TF65 = molecular target: GIPC2, Q8TF65
PICK1, Q9NRD5 = molecular target: PICK1, Q9NRD5
GRIP1_4, Q9Y3R0 = molecular target: T5, GRIP1_4, Q9Y3R0
ARHGEF11, O15085 = molecular target: T6, ARHGEF11, O15085
ARHGEF12, Q9NZN5-2 = molecular target: ARHGEF12, Q9NZN5-2
APBA2_1, Q99767 = molecular target: T7, APBA2_1, Q99767
HTRA2, O43464 = molecular target: HTRA2, O43464
PDLIM1, O00151 = molecular target: PDLIM1, O00151
Inadl_3, Q8NI35 = molecular target: Inadl_3, Q8NI35
GRIP1_3, Q9Y3R0 = molecular target: T8, GRIP1_3, Q9Y3R0
Inadl_4, Q8NI35 = molecular target: Inadl_4, Q8NI35
SCRIB_1, Q14160 = molecular target: SCRIB_1, Q14160
LDB3, O75112 = molecular target: LDB3, O75112
GOPC, Q9HD26 = molecular target: GOPC, Q9HD26
GRIP2_7, Q9C0E4 = molecular target: GRIP2_7, Q9C0E4
PDZD7_3, Q9H5P4 = molecular target: T9, PDZD7_3, Q9H5P4
Inadl_1, Q8NI35 = molecular target: Inadl_1, Q8NI35
PTPN13_1, Q12923 = molecular target: T10, PTPN13_1, Q12923
DLG2_2, Q15700 = molecular target: DLG2_2, Q15700
MAST2, Q6P0Q8 = molecular target: MAST2, Q6P0Q8
GRIP1_2, Q9Y3R0 = molecular target: T11, GRIP1_2, Q9Y3R0

Chain of GIPC2, Q8TF65 (Q8TF65 112-203): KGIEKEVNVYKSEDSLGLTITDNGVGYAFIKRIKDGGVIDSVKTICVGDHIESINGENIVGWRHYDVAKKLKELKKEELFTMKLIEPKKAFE
Chain of ARHGEF12, Q9NZN5-2 (Q9NZN5 other isoform, or with tags, fused parts or gaps): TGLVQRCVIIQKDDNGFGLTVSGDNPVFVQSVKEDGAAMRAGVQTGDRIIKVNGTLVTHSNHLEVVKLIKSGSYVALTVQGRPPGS
Chain of PDLIM1, O00151 (O00151 1-87): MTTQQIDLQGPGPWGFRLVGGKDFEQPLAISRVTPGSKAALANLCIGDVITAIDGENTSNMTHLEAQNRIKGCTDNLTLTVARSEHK
Chain of LDB3, O75112 (O75112 1-94): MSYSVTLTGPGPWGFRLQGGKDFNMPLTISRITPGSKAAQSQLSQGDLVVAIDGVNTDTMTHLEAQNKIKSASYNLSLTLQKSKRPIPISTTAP
Chain of Inadl_4, Q8NI35 (Q8NI35 547-651): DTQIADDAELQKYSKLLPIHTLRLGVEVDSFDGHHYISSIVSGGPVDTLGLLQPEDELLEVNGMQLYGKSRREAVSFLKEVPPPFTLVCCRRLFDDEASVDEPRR
Chain of MAST2, Q6P0Q8 (Q6P0Q8 1099-1202): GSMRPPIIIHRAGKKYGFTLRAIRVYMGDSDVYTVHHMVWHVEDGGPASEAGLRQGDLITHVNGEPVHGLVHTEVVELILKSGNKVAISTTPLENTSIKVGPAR
Chain of Inadl_3, Q8NI35 (Q8NI35 359-469): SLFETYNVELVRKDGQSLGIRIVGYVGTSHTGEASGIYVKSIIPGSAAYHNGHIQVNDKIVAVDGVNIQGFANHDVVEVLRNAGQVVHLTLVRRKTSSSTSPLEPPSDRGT
Chain of LNX1_2, Q8TBB1 (Q8TBB1 371-470): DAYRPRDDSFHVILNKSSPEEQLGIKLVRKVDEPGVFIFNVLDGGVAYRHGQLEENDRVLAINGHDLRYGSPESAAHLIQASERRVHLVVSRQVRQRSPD
Chain of SCRIB_1, Q14160 (Q14160 718-814): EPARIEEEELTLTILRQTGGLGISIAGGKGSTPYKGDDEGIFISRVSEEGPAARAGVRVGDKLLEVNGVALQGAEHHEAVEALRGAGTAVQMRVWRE
Chain of HTRA2, O43464 (O43464 355-458): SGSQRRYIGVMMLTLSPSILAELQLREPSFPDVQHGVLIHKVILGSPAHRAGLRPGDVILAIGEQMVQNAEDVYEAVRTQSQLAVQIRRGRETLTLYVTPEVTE
Chain of Inadl_1, Q8NI35 (Q8NI35 113-229): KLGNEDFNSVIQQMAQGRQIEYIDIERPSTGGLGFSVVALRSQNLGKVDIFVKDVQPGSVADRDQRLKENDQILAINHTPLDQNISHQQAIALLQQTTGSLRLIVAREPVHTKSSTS
Chain of GRIP2_7, Q9C0E4 (Q9C0E4 934-1023): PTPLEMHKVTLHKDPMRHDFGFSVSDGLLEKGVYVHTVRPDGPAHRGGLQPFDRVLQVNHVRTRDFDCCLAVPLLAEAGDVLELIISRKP
Chain of PICK1, Q9NRD5 (Q9NRD5 17-115): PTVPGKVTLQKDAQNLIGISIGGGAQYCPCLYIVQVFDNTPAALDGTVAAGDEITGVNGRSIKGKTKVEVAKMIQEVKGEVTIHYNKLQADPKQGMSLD

pKd (SNTA1, Q13424) | pKd (LNX1_2, Q8TBB1) | pKd (DLG2_3, Q15700) | pKd (SIPA1L2, Q9P2F8) | pKd (LNX2_2, Q8N448) | pKd (MPDZ_12, O75970) | pKd (GIPC2, Q8TF65) | pKd (PICK1, Q9NRD5) | pKd (GRIP1_4, Q9Y3R0) | pKd (ARHGEF11, O15085) | pKd (ARHGEF12, Q9NZN5-2) | pKd (APBA2_1, Q99767) | pKd (HTRA2, O43464) | pKd (PDLIM1, O00151) | pKd (Inadl_3, Q8NI35) | pKd (GRIP1_3, Q9Y3R0) | pKd (Inadl_4, Q8NI35) | pKd (SCRIB_1, Q14160) | pKd (LDB3, O75112) | pKd (GOPC, Q9HD26) | further results | Binder
5.27 | below the threshold | 4.54 | below the threshold | below the threshold | below the threshold | 4.32 | below the threshold | below the threshold | 4 | 3.82 | below the threshold | below the threshold | 3.71 | below the threshold | below the threshold | below the threshold | 4.88 | below the threshold | 3.51 | pKd (GRIP2_7, Q9C0E4): below the threshold; pKd (PDZD7_3, Q9H5P4): 4.47; pKd (Inadl_1, Q8NI35): below the threshold; pKd (PTPN13_1, Q12923): below the threshold; pKd (DLG2_2, Q15700): 5.3; pKd (MAST2, Q6P0Q8): 4.89; pKd (GRIP1_2, Q9Y3R0): below the threshold | ARGPPRESEV [FAM110D, Q8TAY7]
below the threshold | below the threshold | 4.36 | below the threshold | below the threshold | below the threshold | below the threshold | below the threshold | below the threshold | below the threshold | below the threshold | below the threshold | below the threshold | below the threshold | below the threshold | below the threshold | below the threshold | 3.89 | below the threshold | below the threshold | pKd (GRIP2_7, Q9C0E4): below the threshold; pKd (PDZD7_3, Q9H5P4): 4.05; pKd (Inadl_1, Q8NI35): below the threshold; pKd (PTPN13_1, Q12923): below the threshold; pKd (DLG2_2, Q15700): 3.86; pKd (MAST2, Q6P0Q8): 4.72; pKd (GRIP1_2, Q9Y3R0): below the threshold | NISYRRESAI [KCNJ4, P48050]
3.63 | below the threshold | below the threshold | 3.53 | 4.04 | below the threshold | below the threshold | 4.15 | below the threshold | 3.8 | 3.73 | below the threshold | below the threshold | below the threshold | below the threshold | below the threshold | below the threshold | below the threshold | below the threshold | below the threshold | pKd (GRIP2_7, Q9C0E4): below the threshold; pKd (PDZD7_3, Q9H5P4): below the threshold; pKd (Inadl_1, Q8NI35): below the threshold; pKd (PTPN13_1, Q12923): below the threshold; pKd (DLG2_2, Q15700): below the threshold; pKd (MAST2, Q6P0Q8): below the threshold; pKd (GRIP1_2, Q9Y3R0): below the threshold | ARSAAASNYV [CLDN4, O14493]
below the threshold | below the threshold | 3.91 | below the threshold | below the threshold | 3.56 | below the threshold | below the threshold | below the threshold | below the threshold | 3.74 | below the threshold | below the threshold | below the threshold | below the threshold | below the threshold | below the threshold | below the threshold | below the threshold | below the threshold | pKd (GRIP2_7, Q9C0E4): below the threshold; pKd (PDZD7_3, Q9H5P4): below the threshold; pKd (Inadl_1, Q8NI35): below the threshold; pKd (PTPN13_1, Q12923): below the threshold; pKd (DLG2_2, Q15700): below the threshold; pKd (MAST2, Q6P0Q8): 4.1; pKd (GRIP1_2, Q9Y3R0): below the threshold | QRPYRRGSEI [KCNJ18, B7U540]
